Test results published in US20230052168A1 (ROYAL COLLEGE OF SURGEIONS IN IRELAND, published 2023).
Residue numbers refer to the chain shown, from its start. Names and notes keep the numbering of the source. Values belong to the binder of their own block, whether it stands above or below them.

How the values were obtained:
protein C (zymogen) [1] = biological target: T1, protein C (zymogen) (UniProt P04070 43-461); test: inferred from APC generation assay on endothelial cells with E86A control
T1 construct: also called PC
T1 sequence (P04070 43-461): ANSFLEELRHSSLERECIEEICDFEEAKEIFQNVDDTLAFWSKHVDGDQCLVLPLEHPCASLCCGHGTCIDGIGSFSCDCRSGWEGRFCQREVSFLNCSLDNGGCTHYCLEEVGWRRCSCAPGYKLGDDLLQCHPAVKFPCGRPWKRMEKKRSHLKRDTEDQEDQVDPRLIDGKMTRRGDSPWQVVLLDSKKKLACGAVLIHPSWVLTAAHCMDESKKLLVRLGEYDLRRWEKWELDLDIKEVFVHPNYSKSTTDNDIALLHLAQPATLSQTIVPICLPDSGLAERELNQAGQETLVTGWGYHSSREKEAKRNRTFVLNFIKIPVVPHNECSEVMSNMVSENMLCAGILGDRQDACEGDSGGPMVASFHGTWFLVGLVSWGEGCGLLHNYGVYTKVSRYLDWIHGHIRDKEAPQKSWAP
Experimental: (§1) Protein C (100 nM) and thrombin (5 nM) were added with h-sEPCR^Snoop (1 μM) or h-sEPCR-E86A^Snoop (1 μM) an sEPCR variant unable to bind to PC/APC, then incubated for 30 minutes. […] The net effect of this restriction of APC generation. Statistical analysis of experimental data was performed using one-way ANOVA and Tukey's multiple comparison post hoc analysis. ns signifies non-significant, * signifies a p value of <0.05.
as §1, with “Assessment of h-sEPCR^Snoop Inhibition of Protein C Activation by the Thrombin-Thrombomodulin Complex on Endothelial Cells Protein” for “Protein”, “h-sEPCR-E86ASnoop” for “h-sEPCR-E86A^Snoop”, “<0.05 (see FIG. 5).” for “<0.05.”

protein C (zymogen) [2] = biological target: T1, protein C (zymogen); test: control in APC generation assay on endothelial cells (protein C 100 nM, thrombin 5 nM)
Experimental: as §1
as §1, with “Assessment of h-sEPCR^Snoop Inhibition of Protein C Activation by the Thrombin-Thrombomodulin Complex on Endothelial Cells Protein” for “Protein”, “h-sEPCR-E86ASnoop” for “h-sEPCR-E86A^Snoop”, “<0.05 (see FIG. 5).” for “<0.05.”

- binding result (protein C (zymogen) [1]): binds
B1: h-sEPCR^Snoop (recombinant human soluble endothelial cell protein C receptor with GSGGSG linker, SnoopTag and C-terminal His-tag) (receptor)
chain: SQDASDGLQRLHMLQISYFRDPYHVWYQGNASLGGHLTHVLEGPDTNTTIIQLQPLQEPESWARTQSGLQSYLLQFHGLVRLVHQERTLAFPLTIRCFLGCELPPEGSRAHVFFEVAVNGSSFVSFRPERALWQADTQVTSGVVTFTLQQLNAYNRTRYELREFLEDTCVQYVQKHISAENTKGSQTSRSYTSGSGGSGKLGDIEFIKVNKHHHHHH
notes: Expressed in HEK293 cells, purified on nickel; The printed entry still carries the N-terminal signal peptide; also called human sEPCR^Snoop; r-sEPCR

- binding result (protein C (zymogen) [2]): no binding (tested: 1 µM)
B2: h-sEPCR-E86A^Snoop (receptor)
chain: B1 chain with E86A
